# Laboratory results taken from article PMC12060060 (Investigative Ophthalmology & Visual Science, 2025).
# B1: Q147E deamidated αA-crystallin (recombinant human) (natural protein, UniProt P02489 1-173, looked up)
# chain: MDVTIQHPWFKRTLGPFYPSRLFDQFFGEGLFEYDLLPFLSSTISPYYRQSLFRTVLDSGISEVRSDRDKFVIFLDVKHFSPEDLTVKVQDDFVEIHGKHNERQDDHGYISREFHRRYRLPSNVDQSALSCSLSADGMLTFCGPKIETGLDATHAERAIPVSREEKPTSAPSS
# Molecular target: the molecule itself
# Test: dynamic light scattering
protein,measurement,value
B1,binding result,binds
